Laboratory results: paper PMC3950512

Assays:
Assay in all cases: purified protein
Conditions in all cases: 25°C, 50 mM Tris-HCl pH 8.0, 10 mM MgCl2
[1] = system: C[N+]1(C)CCC[C@@H]1C(=O)[O-]
[2] = system: C[N+]1(C)CCC[C@@H]1C(=O)[O-]; assay type: biochemical, Cereibacter sphaeroides
[3] = system: C[N+]1(C)C[C@H](O)C[C@H]1C(=O)[O-]

Row | Substance | Km [1] | kcat [1] | kcat/Km [1] | Km [2] | kcat [2] | kcat/Km [2] | Km [3] | kcat [3] | kcat/Km [3]
1 | pdHpbD (Paracoccus denitrificans PD1222) | 7.3 ± 3 mM | 28 ± 6 s⁻¹ | 3800 M⁻¹ s⁻¹ |  |  |  |  |  | 
2 | rsHpbD (Cereibacter sphaeroides 2.4.1) |  |  |  | 11 ± 4 mM | 4.3 ± 0.6 s⁻¹ | 390 M⁻¹ s⁻¹ | 16 ± 7 mM | 70 ± 7 s⁻¹ | 4300 M⁻¹ s⁻¹
